According to a protein production outcome set (Wang et al. 2014):

Assay: label from the status in PepcDB records

With “MTRKSFPFFLLGLILTVGIDQAVKYWVMHNIPLGTETPLLPFLSLYHVRNSGIAFSFFSSFSHWGLIFLTLIILIFLLWLWKNTQYNKSLTRFGFTLIIGGAIGNLIDRICFYYVIDYILFYINDVFYFAVFNLADTFITLGVIAIIIEELLSWIKRKSTFSE” the protein production was “failed”.

For “MLHLQTFGDLRLIETNGDAIRYPIKGLLMMAHLYAGASHELSRYELAQFLWNDVESELARLNLRKLLSRIRETDGGRAEIPFDFTATTVRLNTQAVSSDLDIFRAGGSPLERLNAIAELTQRGFIGNIKPATKLIEAWIRAQRDAQALQLRQALLDALPDAQKPGAARSISGAALQILERDPNDEQVRALLHQLSGGSSLSERLPNGDGHARVQVKRSEAGGETTADIERVSQAPLILPRLVLLPPTSKHADAGLALANALIEDVTIELCALRNISIVAPHTAGQIRRDSEKAAVVARHSIAYLLDTRLSEEGLFAQLVYFPTDEIIWANRFTMTPDILPRQRRLIAQQLTMSVARELAENEEERLRFEANPEAYHAYLVGSSLMSKLTLPHIRRARKAFKQSLSHKADFSPSFTGLARTFTSEWLVTAQGNNELLHLAEQNALRAIERDPASAAGHRELGVTKLYLGDVDASVAALDLAEQLSPHFADVIYSHADTLVHASRPGDALAKIRRAISLNPIAPDAYLWCAAGASFFLEQYEEAIAYVEAMKDKAPAHRIAAASCAMIGDRKRALFHRQRAESINPVFDVEKWLAIVPFKEDWQKELYREGLLKAGF”, the protein production was “failed”.

With “MNMVQGSAFLAKLMKSADTFELKYDFSCELYRLSTYSTFPAGVPVSERSLARAGFYYTGVNDKVKCFSCGLMLDNWKQGDSPIEKHRKLYPSCSFVQTLNPANSLEASPQPPLPSTATSTMPSGFAASESTGYFSGSYSSFPSDPVNFRANQDCPAFSTSPYHFAMNTEKARLLTYQTWPLSFLSPAELAKAGFYYTGPGDRVACFACGGKLSNWDRKDDPLSEHRRHFPSCPFLKDVGQFTSQYTVSNLSMQTHAARVRTFSTWPSSALVHPQELASAGFYYTGHSDDVKCFCCDGGLRCWESGDDPWVEHAKWFPRCEYLIRIKGQEFVGQVQAGYPHLLEQLLSTSDSPEDETGEAAIVHLGPGENWEDAVMMNTPVVKAALDMGFSRSLVRQTVQRQILATGENYRTVSDLVIGLLDAEDEMREEQTEQEAEEEESDDLTLIRKNKMVLLQHLTPVTPILDCLLSARVITEQEYDAVKQKPHTLQARTLIDTVLAKGNTAATSFRNSLQEIDPGLYRDIFVRQNIRSLPTDDIAALPMEEQLRKLQEERTCKVCMDREVSLVFIPCGHLVVCKECAPSLRKCPICRGTIKGTVRTFLS” the protein production was “failed”.

For “MATRNALRIVSRRFSSGKVLSEEERAAENVFIKKMEQEKLQKLARQGPGEQAAGSASEAKVAGATASASAESGPKVSEDKNRNYAVVAGVVAIVGSIGWYLKAGGKKQPEVQE”, the protein production was “failed”.

In the case of “MHSFPPLLLLLFWGVVSHSFPATLETQEQDVDLVQKYLEKYYNLKNDGRQVEKRRNSGPVVEKLKQMQEFFGLKVTGKPDAETLKVMKQPRCGVPDVAQFVLTEGNPRWEQTHLTYRIENYTPDLPRADVDHAIEKAFQLWSNVTPLTFTKVSEGQADIMISFVRGDHRDNSPFDGPGGNLAHAFQPGPGIGGDAHFDEDERWTNNFREYNLHRVAAHELGHSLGLSHSTDIGALMYPSYTFSGDVQLAQDDIDGIQAIYGRSQNPVQPIGPQTPKACDSKLTFDAITTIRGEVMFFKDRFYMRTNPFYPEVELNFISVFWPQLPNGLEAAYEFADRDEVRFFKGNKYWAVQGQNVLHGYPKDIYSSFGFPRTVKHIDAALSEENTGKTYFFVANKYWRYDEYKRSMDPGYPKMIAHDFPGIGHKVDAVFMKDGFFYFFHGTRQYKFDPKTKRILTLQKANSWFNCRKN”, the protein production is reported as “not failed”.

In the case of “MKSITQASFMKGIMFTFTIAIISYILAKFPILHTIGALAIAIIFAMIYRQVIGYPEHIRPGITFASKRLLKFAIILYGLKLNMGDILGKGWKLLLIDIIVIIFSISLTLLLNQIIKGNKDISILLGIGTGVCGAAAIAATAPILKSKEKDIAISVGIIALVGTIFALIYTAIEAIFNIPTITYGAWTGISLHEIAQVVLAAGIGGSEAMTFALLGKLGRVFLLIPLSIVLILYMRYKSHSSQVQQKIDIPYFLIGFIIMACINTFVPIPSLLMNIINVITTLCMLMAMVALGLNIVLKEVISKALKPFIVICITSICLSGVTLLVTSIMFK”, the protein production is reported as “failed”.
